Experimental data: the DeepSol protein solubility set

test: soluble on expression in E. coli; label from the status in PepcDB or PDB records

| Sequence | soluble on expression in E. coli |
| --- | --- |
| MRTPYCVADYLLDRLTDCGADHLFGVPGDYNLQFLDHVIDSPDICWVGCANELNASYAADGYARCKGFAALLTTFGVGELSAMNGIAGSYAEHVPVLHIVGAPGTAAQQRGELLHHTLGDGEFRHFYHMSEPITVAQAVLTEQNACYEIDRVLTTMLRERRPGYLMLPADVAKKAATPPVNALTHKQAHADSACLKAFRDAAENKLAMSKRTALLADFLVLRHGLKHALQKWVKEVPMAHATMLMGKGIFDERQAGFYGTYSGSASTGAVKEAIEGADTVLCVGTRFTDTLTAGFTHQLTPAQTIEVQPHAARVGDVWFTGIPMNQAIETLVELCKQHVHAGLMSSSSGAIPFPQPDGSLTQENFWRTLQTFIRPGDIILADQGTSAFGAIDLRLPADVNFIVQPLWGSIGYTLAAAFGAQTACPNRRVIVLTGDGAAQLTIQELGSMLRDKQHPIILVLNNEGYTVERAIHGAEQRYNDIALWNWTHIPQALSLDPQSECWRVSEAEQLADVLEKVAHHERLSLIEVMLPKADIPPLLGALTKALEACNNA | soluble |
| MRTVALGIVAMACLVAIAHGGNFFQDAEVSWGQGRGKIVDGGRGLDLTLDRSSGSGFQSKSEYLFGKIDMQIKLVPGNSAGTVTTFYLSSQGSTHDEIDFEFLGNVTGEPYTLHTNVFTQGQGQREQQFRLWFDPTQSFHTYSIIWNPQHVIFAVDGTPIRDFKNHEARGVAFPKSQPMRVYASLWNADDWATQGGRVKADWSKAPFVASFRDFNADACVWSNGAQRCPVGTMETVAAPAGGRRGGAGGWWNQELSDMSYRRMRWVQRKFMIYNYCTDAKRFPQGTPAECKLR | soluble |
| MRVARLFRFPVKGFPAEEIPEADVRTGRGIRGDRVAAFTNGSLDIPDDSWHRYSAFTVLKNDTDLQKWQVELDLAEAADSSQPAVADPSATVTLTSPQNETTTFRTDDRDTRATSADFLSARIPPQGDFPRALSVADQGMFDSQAAGVSIINPATVAAISQTADGQAALAPGETELDPLRFRGNVLVDGLAPFEEFALIGKIVRLGGVRLAITQAIERCPATTVNPTTTAVDVNVPRVLASACGHLHCGVYGRILESGLVSTGDEIEIEGDAPRELVKTARTPRFMTVLGSQQICNDIVEVSLRDDQGWIREFDEPGTNLRVHLDLGEPFWRTYTITDVSDDIVSIAVRTQGKGSRAVAELAAGQSVLASGPHGTMTANRVFGGTTALVTAGIGITPSLGLMRGAELSGTEKIKLFHVDRDHRTACLWDRLQKRAHSRQIPVETHHRDTASQGRPGHADLVDWLAGCDNVMVCGPADFTRAVLDASAEAGVPAVHQEIFASPNTGMSEAIAQCSPAEVTLENSGTSFLWEPQQGTLLEALEARGLRADNSCRGGSCGTCAVSLAAGSVIYPVEPAARIAADEVLVCSAVPSGPISLGILEHHHHHH | not soluble |
| MRVFPVTLGPLQENAYLVETGEGPVLIDPGDEPEKLLALFQTTGLIPLAILLTHAHFDHVGAVAPLVEALDLPVYLHPLDLPLYEGADLAARAWGLAIPKPPLPVRPLEEGMRLFGFQVLHLPGHSPGHVAFYDPEGAQVFSGDLLFRGSVGRYDLPGADPKALFASLKRLLSLPPETRVHPGHGPGTTLGLEARTNPFLTGLEWEA | soluble |
| MRVGIKVLGCPKNEADCEVLAGVLREGGHEIVFDVKDADVVVLDTCAFIEDAKRESIDEIFSFVDAKDQYGYKLVVKGCLVQRYYEELKKEIPEVDQWIGVADPEEIANAIENGTDLVPDQPETVYRYRKRIDLEERPYAYVKISDGCDRGCTFCSIPSFKGSLRSRSIEDITREVEDLLKEGKKEIILVAQDTTSYGIDLYRKQALPDLLRRLNSLNGEFWIRVMYLHPDHLTEEIISAMLELDKVVKYFDVPVQHGSDKILKLMGRTKSSEELKKMLSSIRERFPDAVLRTSIIVGFPGETEEDFEELKQFVEEIQFDKLGAFVYSDEEGTVAFNLKEKVDPEMAKRRQEELLLLQAEISNSRLDRFVGKKLKFLVEGKEGKFLVGRTWTEAPEVDGVVFVRGKGKIGDFLEVVIKEHDEYDMWGSVILEHHHHHH | soluble |
| MRVKAMASFSPFDVTLWYSTAAPAPLTEPLSGRIQADVCIVGAGYTGLTTALELAKAGVDVVLLERQEIGFGGSGRNAGHCTPTFTHYSLPELRKMLGETWAERLIERQTRANDRVSHMIRDYRINCEWVQNGYVMGAPHKGAIEEIRRKVETYNAVGAKTRLLGRDEVAAITGSPRFHGGWLHEEAGHLNPLAYARGLGGAVIQERGRIFTGSSVTGCERNATGGWKVRTEHGEVIASKVIFTTGAYTVGGWPKLDQTFKIQRVFVAATQILSEETRRTVLPRNTTIHDGRGDIYVYKYNAEGRIVASMFPMGRRGRDIVYTRQVMSDRLKWLHPQISADIRWDYFWFGELDMQYRTVPRLYDLSPGVVALTGLSGRGVPTGSMLGSILSEWALGKPENELALKVEPLKSAPFYMSFAPAMTLRYYRMRDNIATRLAGMELPPHALEHHHHHH | not soluble |
| MRVKGPSSRRKKKKILKLAKGYRGQRSRSYRRAKEAVMRALYYQYRDRKLRKREFRRLWIARINAAVRAYGLNYSTFINGLKKAGIELDRKILADMAVRDPQAFEQVVNKVKEALQVQ | soluble |
| MRVLALSAVFLVASIIGMPAVAKEWQENKSWNAHFTEHKSQGVVVLWNENKQQGFTNNLKRANQAFLPASTFKIPNSLIALDLGVVKDEHQVFKWDGQTRDIATWNRDHNLITAMKYSVVPVYQEFARQIGEARMSKMLHAFDYGNEDISGNVDSFWLDGGIRISATEQISFLRKLYHNKLHVSERSQRIVKQAMLTEANGDYIIRAKTGYSTRIEPKIGWWVGWVELDDNVWFFAMNMDMPTSDGLGLRQAITKEVLKQEKIIP | soluble |
| MRVLIVKTSSMGDVLHTLPALTDAQQAIPEIKFDWVVEEGFAQIPSWHAAVERVIPVAIRRWRKAWFSAPIKAERKAFREALQAENYDAVIDAQGLVKSAALVTRLAHGVKHGMDWQTAREPLASLFYNRKHHIAKQQHAVERTRELFAKSLGYSKPQTQGDYAIAQHFLTNLPTDAGEYAVFLHATTRDDKHWPEEHWRELIGLLADSGIRIKLPWGAPHEEERAKRLAEGFAYVEVLPKMSLEGVARVLAGAKFVVSVDTGLSHLTAALDRPNITVYGPTDPGLIGGYGENQVECRSTSMSLADLPAQTVFQNLNLEIITNKLTSEIR | not soluble |
| MRVLVRDLKAHVGQEVELLGFLHWRRDLGRIQFLLLRDRSGVVQVVTGGLKLPLPESALRVRGLVVENAKAPGGLEVQAKEVEVLSPALEPTPVEIPKEEWRANPDTLLEYRYVTLRGEKARAPLKVQAALVRGFRRYLDRQDFTEIFTPKVVRAGAEGGSGLFGVDYFEKRAYLAQSPQLYKQIMVGVFERVYEVAPVWRMEEHHTSRHLNEYLSLDVEMGFIADEEDLMRLEEALLAEMLEEALNTAGDEIRLLGATWPSFPQDIPRLTHAEAKRILKEELGYPVGQDLSEEAERLLGEYAKERWGSDWLFVTRYPRSVRPFYTYPEEDGTTRSFDLLFRGLEITSGGQRIHRYEELLESLKAKGMDPEAFHGYLEVFKYGMPPHGGFAIGAERLTQKLLGLPNVRYARAFPRDRHRLTP | soluble |
| MRVREPAVAGTFYPKDKEELNKLMDLLCGFEPKEKIKPKAILVPHAGYIYSGKTACEVYKRIEIPEKVVLLGPNHTGLGKPISVYSGDAWETPYGVVEIDGELREKILKYPYANPDEYAHLYEHSLEVQLPFLQRYARREFKILPIVVTFVEYEVAKDFGRFLGEVLKEEDALIVISSDMSHYVPAEEARKKDEILISAMERLNTEELYFKAVQYNITMCGVVPAVVGIESAKVLGATKGIVVDYSNSGDTTGDYSQVVAYLGMIFLLEHHHHHH | not soluble |
| MRVRNRKGATELLEANPQYVVLNPLEAKAKWRDLFGNDNPIHVEVGSGKGAFVSGMAKQNPDINYIGIDIQKSVLSYALDKVLEVGVPNIKLLWVDGSDLTDYFEDGEIDRLYLNFSDPWPKKRHEKRRLTYKTFLDTFKRILPENGEIHFKTDNRGLFEYSLVSFSQYGMKLNGVWLDLHASDFEGNVMTEYEQKFSNKGQVIYRVEAEF | soluble |
| MRVSKSKKPTEICPIVSAIAIIGSEPKLLTIRYLLDGPKRFNELQRLTSLSSKTLSKTLKELENHGIVERKIINSHPIVAVYELTDKGKDLKRVFDELRRWGEKFALTKIAVMNSIRVNQEF | soluble |
| MRYCQFEGCSNTTEKGAYCSEHARKSRKKKKPINVYHHDNKSFYRTKEWQDVADFVYEREGGCCQRCGRFVFGRQAHRHHVIPIKKNEMLKLDPNNIRLLCPKCHVIEENEADEKKVFPSYFKKLEHHHHHH | soluble |
| MRYFKRRVGSGRVYMVMDNYSPHKTKGTLEVCCRKGIHPVFTPPYSPELNMAEAVFKSLKNYMSNKIFYTIEDVKNCIKQFFEENKYRFNLNAITYLGLDKIEV | soluble |
| MRYGEKEIKEFDVENMEIWPNDAKNDYIIKITLPEFMCCCPRSGYPDFATIYLEYMPDKFVVELKAIKLYINTFMYRNVSHEASINEIYNTLKDKLKPKWIKVVGDFNPRGNVHTVIECRSDMVVPK | not soluble |
| MRYHGGLLLGAFDDDGKIIGMSFGYPGFRNGKLYLYSHMAGVVENKKYSNVGYSLKMKQRDLAASMGYDLIAWTFDPFNPLNAYFNISKLGAITRTYIKNFYGVMNDGINRGMRTDRVVAEWWINLQIDRNCEIIDFLNDVDRYSEISTIHESSCLGFYVPPDISYFHKYPDLGSKLKDAAFEVFNALFSKGYAIVAYKRGKSNYFVFKRIENLGKRIFDPIVK | not soluble |
| MRYIRQLCCVSLLCLSGSAVAANVRLQVEGLSGQLEKNVRAQLSTIESDEVTPDRRFRARVDDAIREGLKALGYYQPTIEFDLRPPPKKGRQVLIAKVTPGVPVLIGGTDVVLRGGARTDKDYLKLLDTRPAIGTVLNQGDYENFKKSLTSIALRKGYFDSEFTKAQLGIALGLHKAFWDIDYNSGERYRFGHVTFEGSQIRDEYLQNLVPFKEGDEYESKDLAELNRRLSATGWFNSVVVAPQFDKARETKVLPLTGVVSPRTENTIETGVGYSTDVGPRVKATWKKPWMNSYGHSLTTSTSISAPEQTLDFSYKMPLLKNPLEQYYLVQGGFKRTDLNDTESDSTTLVASRYWDLSSGWQRAINLRWSLDHFTQGEITNTTMLFYPGVMISRTRSRGGLMPTWGDSQRYSIDYSNTAWGSDVDFSVFQAQNVWIRTLYDRHRFVTRGTLGWIETGDFDKVPPDLRFFAGGDRSIRGYKYKSIAPKYANGDLKGASKLITGSLEYQYNVTGKWWGAVFVDSGEAVSDIRRSDFKTGTGVGVRWESPVGPIKLDFAVPVADKDEHGLQFYIGLGPELLEHHHHHH | not soluble |
| MRYTDSRKLTPETDANHKTASPQPIRRISSQTLLGPDGKLIIDHDGQEYLLRKTQAGKLLLTK | soluble |
| MRYWKNSRIKMFEQEDEWISKTQMKKQMNDLQDLGMALTKLSNDTLKKIGLDADLYEAVTAYKKITSNGALKRQAQFIGRLMRDTDPAPIEAFLAKLRGDDAAHNAFLQRVEQARVRLLADDGALTQFMSDFPHADAGKLRTLIRNTKKEQEQNKPPKNFRALFQELKTVMENGDAEI | not soluble |
| MSAALVAQQVATLREQGFVVVRNFASPPVRQALRELALQHLAQTVDPVEYEADLKYPGAPSSRLAAGGQTVRRLLDAYGRDQRFRDWATQAAIGAFLRAYFQDTPVLSTVHHNCIMTKHPAFGSLTGWHQDIRYWSFSDDDLVSCWLALGDERADNGGLYFVPGSHTASFMPEQYDARKFFRDDLPQNQEWIGRAVCPELQAGDVVFFHCRTLHAARQNATDTVKLSLVHTYHPASCHPLPGTRSAGSPGVPLPLEHHHHHH | soluble |
